From the Human Domainome abundance scans (Beltran et al. 2025)
± gives the uncertainty stated by the source.

B1: Transcriptional regulator ERG, residues 117 to 197; numbered along this chain, P11308 (parent)
chain: NMTTNERRVIVPADPTLWSTDHVRQWLEWAVKEYGLPDVNILLFQNIDGKELCKMTKDDFQRLTPSYNADILLSHLHYLRE
B2: Steroid hormone receptor ERR2, residues 100 to 176; numbered along this chain, O95718 (parent)
chain: KRLCLVCGDIASGYHYGVASCEACKAFFKRTIQGNIEYSCPATNECEITKRRRKSCQACRFMKCLKVGMLKEGVRLD

Variants of: B1
Assay: abundance fitness (aPCA) (normalised: wild type 0, dead -1); higher = more abundant; growth selection in yeast, the domain comes from the species named
Details: Homo sapiens

Abundance fitness of substitutions, site by site:
E6: H 0.004 ± 0.083, L 0.006 ± 0.042, N 0.017 ± 0.068, D -0.085 ± 0.073, A -0.139 ± 0.043, M 0.024 ± 0.059, G 0.031 ± 0.029, I 0.007 ± 0.091, F 0.002 ± 0.082, C -0.242 ± 0.058
T4: A -0.099 ± 0.043, M 0.146 ± 0.052, L -0.025 ± 0.044, N -0.028 ± 0.069, I 0.054 ± 0.086, E 0.035 ± 0.045, K -0.043 ± 0.058, P -0.056 ± 0.056, W 0.01 ± 0.047, H -0.151 ± 0.075, C -0.018 ± 0.059, F 0.079 ± 0.062, D 0.04 ± 0.056, Y -0.04 ± 0.078, G -0.042 ± 0.032, Q -0.126 ± 0.054, R -0.149 ± 0.037
N5: Y -0.105 ± 0.089, H -0.071 ± 0.078, C -0.01 ± 0.066, W -0.003 ± 0.049, K 0.001 ± 0.056, T -0.071 ± 0.052, V -0.004 ± 0.044, F 0.075 ± 0.079, E 0.064 ± 0.047, G -0.01 ± 0.034, A -0.06 ± 0.043, P -0.092 ± 0.058, I 0.036 ± 0.092, D 0.079 ± 0.068, S -0.119 ± 0.046, R -0.044 ± 0.037, M 0.085 ± 0.05
N1: F 0.012 ± 0.076, T 0.002 ± 0.072, Q -0.011 ± 0.17, M -0.087 ± 0.071, K -0.114 ± 0.09, I 0.007 ± 0.081, E -0.038 ± 0.12, D -0.071 ± 0.081, H -0.279 ± 0.085, Y 0.029 ± 0.069, C -0.057 ± 0.068, W -0.168 ± 0.081, S -0.097 ± 0.066, A -0.144 ± 0.092, R -0.054 ± 0.072, G -0.154 ± 0.078
M2: W -0.17 ± 0.053, H -0.046 ± 0.095, G -0.337 ± 0.044, S -0.105 ± 0.051, I -0.143 ± 0.084, E -0.213 ± 0.058, K -0.144 ± 0.059, V -0.417 ± 0.054, L -0.042 ± 0.053, C -0.166 ± 0.086, D -0.195 ± 0.11, A -0.296 ± 0.057, R -0.049 ± 0.037, T -0.033 ± 0.051, Y -0.139 ± 0.11, Q 0.037 ± 0.07, P 0.004 ± 0.07, F -0.048 ± 0.084, N -0.028 ± 0.075
T3: K -0.109 ± 0.065, P -0.162 ± 0.071, Q -0.043 ± 0.059, L -0.094 ± 0.046, H -0.127 ± 0.086, G -0.022 ± 0.035, F -0.007 ± 0.073, Y -0.141 ± 0.078, N -0.025 ± 0.078, R -0.05 ± 0.036, C -0.088 ± 0.066, V -0.08 ± 0.044, M 0.029 ± 0.067, E -0.045 ± 0.055, S 0.055 ± 0.046, D -0.05 ± 0.066, I -0.014 ± 0.08, A -0.043 ± 0.039

Variants of: B2
Assay: as above
Details: Homo sapiens

Abundance fitness, by site and new letter:
L65: D -0.548 ± 0.15, G -0.534 ± 0.055, S -0.442 ± 0.071, N -0.813 ± 0.31, Y -0.456 ± 0.17, K -0.466 ± 0.085, Q -0.102 ± 0.062, P -0.753 ± 0.17, A -0.256 ± 0.064, F -0.433 ± 0.12, I -0.289 ± 0.11, T -0.516 ± 0.093, M -0.175 ± 0.071, R -0.459 ± 0.052, W -0.697 ± 0.095, H -0.797 ± 0.35, V -0.082 ± 0.044, E -0.132 ± 0.054
E72: R -0.355 ± 0.057, C -0.262 ± 0.089, H -0.368 ± 0.18, M -0.448 ± 0.12, F -0.556 ± 0.15, Q -0.16 ± 0.075, W -0.503 ± 0.098, L -0.424 ± 0.066, I -0.299 ± 0.14, T -0.104 ± 0.063, D -0.012 ± 0.086, S -0.051 ± 0.054, A -0.088 ± 0.061, G -0.122 ± 0.047, N 0.02 ± 0.092, Y -0.501 ± 0.15, P -0.029 ± 0.065
V67: T -0.262 ± 0.079, W -0.665 ± 0.13, N -0.538 ± 0.24, R -0.409 ± 0.056, L -0.222 ± 0.057, I -0.323 ± 0.14, P -1.03 ± 0.24, H -0.321 ± 0.17, E -0.145 ± 0.058, M -0.061 ± 0.069, F -0.24 ± 0.15, S -0.073 ± 0.054, Q -0.439 ± 0.09, G -0.425 ± 0.056, Y -0.347 ± 0.14, C -0.027 ± 0.074, D -0.646 ± 0.21, A -0.121 ± 0.055
L76: P -0.079 ± 0.08, Q -0.007 ± 0.061, E 0.146 ± 0.053, W -0.095 ± 0.053, A 0.124 ± 0.057, S -0.07 ± 0.062, M -0.001 ± 0.067, N 0.056 ± 0.12, V 0.058 ± 0.045, Y -0.001 ± 0.12, D 0.08 ± 0.09, I -0.037 ± 0.15, K -0.028 ± 0.07, C -0.099 ± 0.11, T -0.024 ± 0.083, G 0.055 ± 0.043
G73: Y -0.6 ± 0.22
